Source: patent publication US10703792B2, “Insulin analogues with selective signaling properties and reduced mitogenicity” (Case Western Reserve University, priority 2015, dated 2020)

How the values were obtained:
IR = IR (Homo sapiens, UniProt P06213); details: known in the art; cited from earlier work
Sprague-Dawley rats = details: one year of treatment; cited from earlier work
[1] = system: human breast-cancer cell line MCF-7; experiment: MCF-7 colony formation in soft agar (mitogenicity); format: cell-based; details: 100 nM protein, 3 weeks, relative to basal; preliminary assays
Experimental: Assay for MCF-7 Colony Formation in Soft Agar.
In our preliminary assays MCF-7 cells (1.5×10^3 cells in 0.75 ml, obtained from ATCC cat #HTB-22), were mixed with an equal volume Bacto-agar at 42° C. This 0.3% agar suspension was poured over a 1.5-ml base of 0.6% agar in 12-well plates and overlaid with basal growth medium with (or without) insulin or insulin analogues at a protein concentration of 100 nM, which was replenished 3× per week. Plates were incubated at 37° C. in a CO2 tissue-culture incubator for 3 weeks, at which time colonies were stained with crystal violet and counted under an inverted microscope. A positive control was provided by IGF-I (not shown) and a negative control by medium lacking insulin or an insulin analogue (“basal” in FIG. 6).

[2] = system: male Lewis rats rendered diabetic by streptozotocin; details: statement on a current insulin product, not tested here; cited from earlier work

## Asp^B10-insulin: insulin analogue with His^B10 substituted by Asp, known in the art
IR
  Enhancement of affinity for the IR relative to insulin: twofold
Sprague-Dawley rats
  Mammary tumors on chronic treatment: excess mammary tumors

## human proinsulin: wild-type human proinsulin (SEQ ID NO: 1)
[1]
  Mitogenicity: MCF-7 colony formation in soft agar: negligible activities

## insulin detemir
[2]
  Nanomoles needed for equivalent therapeutic effects: threefold
